From patent US20230272119A1 (MARENGO THERAPEUTICS, published 2023)

Key:
[1] = target: T1, α-TRAILR2 heavy-LgBiT (SEQ ID NO: 146); test: NanoBiT, HC-LgBiT:LC-SmBiT:competing LC 1:1:1; competing kappa LC m6 (SEQ ID NO: 97)
T1 construct: VH-CH1-linker-LgBiT; germline VH3-20*01

[2] = target: T1, α-TRAILR2 heavy-LgBiT (SEQ ID NO: 146); test: NanoBiT, HC-LgBiT:LC-SmBiT:competing LC 1:1:1; competing kappa LC m12 (SEQ ID NO: 103)
[3] = target: T1, α-TRAILR2 heavy-LgBiT (SEQ ID NO: 146); test: NanoBiT, HC-LgBiT:LC-SmBiT:competing LC 1:1:1; competing kappa LC m15 (SEQ ID NO: 106)
[4] = target: T1, α-TRAILR2 heavy-LgBiT (SEQ ID NO: 146); test: NanoBiT, HC-LgBiT:LC-SmBiT:competing LC 1:1:1; competing kappa LC m18 (SEQ ID NO: 109)
[5] = target: T1, α-TRAILR2 heavy-LgBiT (SEQ ID NO: 146); test: NanoBiT, HC-LgBiT:LC-SmBiT:competing LC 1:1:1; competing kappa LC m21 (SEQ ID NO: 112)
[6] = target: T1, α-TRAILR2 heavy-LgBiT (SEQ ID NO: 146); test: NanoBiT, HC-LgBiT:LC-SmBiT:competing LC 1:1:1; competing kappa LC m24 (SEQ ID NO: 115)
[7] = target: T1, α-TRAILR2 heavy-LgBiT (SEQ ID NO: 146); test: NanoBiT, HC-LgBiT:LC-SmBiT:competing LC 1:1:1; competing kappa LC m42 (SEQ ID NO: 133)
[8] = target: T2, α-activin receptors heavy-LgBiT (SEQ ID NO: 149); test: NanoBiT, HC-LgBiT:LC-SmBiT:competing LC 1:1:1; competing kappa LC m6 (SEQ ID NO: 97)
T2 construct: VH-CH1-linker-LgBiT; germline VH1-46*01

[9] = target: T2, α-activin receptors heavy-LgBiT (SEQ ID …); test: NanoBiT, HC-LgBiT:LC-SmBiT:competing LC 1:1:1; competing kappa LC m9 (SEQ ID NO: 100)
[10] = target: T2, α-activin receptors heavy-LgBiT (SEQ ID …); test: NanoBiT, HC-LgBiT:LC-SmBiT:competing LC 1:1:1; competing kappa LC m12 (SEQ ID NO: 103)
[11] = target: T2, α-activin receptors heavy-LgBiT (SEQ ID …); test: NanoBiT, HC-LgBiT:LC-SmBiT:competing LC 1:1:1; competing kappa LC m24 (SEQ ID NO: 115)
[12] = target: T2, α-activin receptors heavy-LgBiT (SEQ ID …); test: NanoBiT, HC-LgBiT:LC-SmBiT:competing LC 1:1:1; competing kappa LC m27 (SEQ ID NO: 118)
[13] = target: T2, α-activin receptors heavy-LgBiT (SEQ ID …); test: NanoBiT, HC-LgBiT:LC-SmBiT:competing LC 1:1:1; competing kappa LC m33 (SEQ ID NO: 124)
[14] = target: T2, α-activin receptors heavy-LgBiT (SEQ ID …); test: NanoBiT, HC-LgBiT:LC-SmBiT:competing LC 1:1:1; competing kappa LC m42 (SEQ ID NO: 133)
[15] = target: T3, α-CTLA4 heavy-hCHIg_Knob_Cys (SEQ ID NO: 168) (Homo sapiens (Human), UniProt P0DOX5 1-449 = IgG part); test: intact MS of papain-cleaved multispecific molecule 4; mispaired Fab observed (observed mass, Da)
T3 construct: full heavy chain, human Fc knob; Fab analysed after papain cleavage in the MS assay; germline VH3-30*01; also called HCP2 of multispecific molecules 3, 4, 5, 9

[16] = target: T4, α-TNFR10β heavy-hCHIg_Hole_Cys (SEQ ID NO: 177); test: intact MS of papain-cleaved multispecific molecule 4; Fab of this pairing observed (observed mass, Da)
T4 construct: full heavy chain, human Fc hole; Fab analysed after papain cleavage in the MS assay; also called α-TRAILR2 arm first chain; HCP1 of multispecific molecules 4, 6, 12

[17] = target: T5, α-CTLA4 heavy-hCHIg_Knob_Cys-GH_scFv (SEQ ID NO: 169); test: KappaSelect resin analysis of multispecific molecule 12, reduced gel; said to agree with lambda light chain pairing with the kappa heavy chain in molecule 4
T5 construct: full heavy chain, human Fc knob, C-terminal scFv; germline VH3-30*01; also called HCP2 of multispecific molecule 12

[18] = target: T6, α-CD221 heavy-hCHIg_Hole_Cys (SEQ ID NO: 180); test: intact MS of papain-cleaved multispecific molecule 5; Fab of this pairing observed (observed mass, Da)
T6 construct: full heavy chain, human Fc hole; Fab analysed after papain cleavage in the MS assay; germline VH1-69*01; also called HCP1 of multispecific molecule 5

[19] = target: T7, α-IL12β heavy-LgBiT (SEQ ID NO: 161); test: NanoBiT, HC-LgBiT:LC-SmBiT:competing LC 1:1:1; competing kappa LC m6 (SEQ ID NO: 97)
T7 construct: VH-CH1-linker-LgBiT; germline VH3-33*01

[20] = target: T7, α-IL12β heavy-LgBiT (SEQ ID NO: 161); test: NanoBiT, HC-LgBiT:LC-SmBiT:competing LC 1:1:1; competing kappa LC m9 (SEQ ID NO: 100)
[21] = target: T7, α-IL12β heavy-LgBiT (SEQ ID NO: 161); test: NanoBiT, HC-LgBiT:LC-SmBiT:competing LC 1:1:1; competing kappa LC m12 (SEQ ID NO: 103)
[22] = target: T7, α-IL12β heavy-LgBiT (SEQ ID NO: 161); test: NanoBiT, HC-LgBiT:LC-SmBiT:competing LC 1:1:1; competing kappa LC m15 (SEQ ID NO: 106)
[23] = target: T7, α-IL12β heavy-LgBiT (SEQ ID NO: 161); test: NanoBiT, HC-LgBiT:LC-SmBiT:competing LC 1:1:1; competing kappa LC m18 (SEQ ID NO: 109)

B1: α-TRAILR2 light-SmBiT (SEQ ID NO: 147) (other)
light: SSELTQDPAVSVALGQTVRITCQGDSLRSYYASWYQQKPGQAPVLVIYGKNNRPSGIPDRFSGSSSGNTASLTITGAQAEDEADYYCNSRDSSGNHVVFGGGTKLTVLGQPKANPTVTLFPPSSEELQANKATLVCLISDFYPGAVTVAWKADGSPVKAGVETTKPSKQSNNKYAASSYLSLTPEQWKSHRSYSCQVTHEGSTVEKTVAPTECSGSSGGGGSGGGGSSGGVTGYRLFEEIL
notes: lambda light chain-linker-SmBiT; germline Vl3-19*01
Percent pairing [1]: 100% | Percent pairing [2]: 84% | Percent pairing [3]: 77% | Percent pairing [4]: 100% | Percent pairing [5]: 100% | Percent pairing [6]: 81% | Percent pairing [7]: 100%

B2: α-activin receptors light-SmBiT (SEQ ID NO: 150) (other)
light: QSALTQPASVSGSPGQSITISCTGTSSDVGSYNYVNWYQQHPGKAPKLMIYGVSKRPSGVSNRFSGSKSGNTASLTISGLQAEDEADYYCGTFAGGSYYGVFGGGTKLTVLGQPKANPTVTLFPPSSEELQANKATLVCLISDFYPGAVTVAWKADGSPVKAGVETTKPSKQSNNKYAASSYLSLTPEQWKSHRSYSCQVTHEGSTVEKTVAPTECSGSSGGGGSGGGGSSGGVTGYRLFEEIL
notes: lambda light chain-linker-SmBiT; germline Vl2-14*01
Percent pairing [8]: 90% | Percent pairing [9]: 90% | Percent pairing [10]: 81% | Percent pairing [11]: 75% | Percent pairing [12]: 79% | Percent pairing [13]: 100% | Percent pairing [14]: 87%

B3: α-TRAILR2 light (SEQ ID NO: 148) (other)
light: SSELTQDPAVSVALGQTVRITCQGDSLRSYYASWYQQKPGQAPVLVIYGKNNRPSGIPDRFSGSSSGNTASLTITGAQAEDEADYYCNSRDSSGNHVVFGGGTKLTVLGQPKANPTVTLFPPSSEELQANKATLVCLISDFYPGAVTVAWKADGSPVKAGVETTKPSKQSNNKYAASSYLSLTPEQWKSHRSYSCQVTHEGSTVEKTVAPTECS
notes: unmodified lambda light chain; germline Vl3-19*01; also called LLCP of multispecific molecules 4, 6, 12
binding result [15]: binds | binding result [16]: binds | binding result [17]: binds

B4: α-CD221 light (SEQ ID NO: 136) (other)
light: SSELTQDPAVSVALGQTVRITCQGDSLRSYYATWYQQKPGQAPILVIYGENKRPSGIPDRFSGSSSGNTASLTITGAQAEDEADYYCKSRDGSGQHLVFGGGTKLTVLGQPKANPTVTLFPPSSEELQANKATLVCLISDFYPGAVTVAWKADGSPVKAGVETTKPSKQSNNKYAASSYLSLTPEQWKSHRSYSCQVTHEGSTVEKTVAPTECS
notes: unmodified lambda light chain; germline Vl3-19*01; also called LLCP of multispecific molecule 5
binding result [18]: binds

B5: α-IL12β light-SmBiT (SEQ ID NO: 162) (other)
light: QSVLTQPPSVSGAPGQRVTISCSGSRSNIGSNTVKWYQQLPGTAPKLLIYYNDQRPSGVPDRFSGSKSGTSASLAITGLQAEDEADYYCQSYDRYTHPALLFGTGTKVTVLGQPKANPTVTLFPPSSEELQANKATLVCLISDFYPGAVTVAWKADGSPVKAGVETTKPSKQSNNKYAASSYLSLTPEQWKSHRSYSCQVTHEGSTVEKTVAPTECSGSSGGGGSGGGGSSGGVTGYRLFEEIL
notes: lambda light chain-linker-SmBiT; germline Vl1-44*01
Percent pairing [19]: 100% | Percent pairing [20]: 100% | Percent pairing [21]: 100% | Percent pairing [22]: 100% | Percent pairing [23]: 80%
